Patent US20100305304A1 (COMPLIX, published 2010)

Legend:
[1] = target: the molecule itself; experiment: self-association of the peptide chains into a homotrimer; CD thermal unfolding curve fitted to a monomer-trimer equilibrium
Method: The said synthesized peptide was dissolved at a concentration of 292 microM in 20 mM phosphate buffer (PBS), 150 mM NaCl, pH 7.2. The CD spectra were measured between […], at 5 and 90 degrees Celsius (FIG. 3). The spectrum at 5 degrees Celsius was indicative of a high alpha-helical secondary structure content, in agreement with the expectation that all heptad regions, but not all of the flanking residues, would assemble as alpha-helical coiled coils.
To analyse whether the temperature-induced transition between helical and nonhelical states was reversible, a forward (up) and backward (down) thermal scan was performed on the same sample, by recording the CD signal at […] as a function of temperature at a scanning rate of about 1 degree Celsius per minute (FIG. 4). It was observed that the up and down scans almost perfectly coincided, thereby confirming the quantitative unfolding and refolding of the peptides in the sample.
FIG. 5 represents fitting of a theoretic equation for trimeric association to experimental data. The experimental data are taken from FIG. 4, curve labeled “UP”. The theoretic equations used are listed supra. The fitted parameters (fitting results) are listed at the right in FIG. 5. “Transit. T” corresponds to Tₜ, but is expressed here in degrees Celsius. The parameter “delta Cₚ” was kept constant at 3.0 kJ mol⁻¹ K⁻¹. […]

[2] = target: the molecule itself; experiment: self-association of the peptide chains into a homotrimer; sedimentation equilibrium ultracentrifugation

B1: reference peptide Q2a (Ac-MSIEEIQKQQAAIQKQIAAIQKQIYRMTP-NH2) (peptide)
peptide: Ac-MSIEEIQKQQAAIQKQIAAIQKQIYRMTP-NH2
notes: Synthetic peptide; Three copies associate non-covalently into a parallel alpha-helical coiled coil; also called untagged peptide
- binding result [1]: binds

B2: Q2aI peptide (Ac-MSIEEIQKQIAAIQKQIAAIQKQIYRMTP-NH2) (peptide)
peptide: Ac-MSIEEIQKQIAAIQKQIAAIQKQIYRMTP-NH2
notes: Synthetic peptide; also called untagged peptide
- binding result [2]: binds
